Reference: the RNAGym collection of RNA variant scans (doi:10.1073/pnas.2313332121)

B1: TPR t1 (parent)
chain: GACCAAUCUGCCCUCAGAGCUCGAGAACAUCUUCGGAUGCAGAGGAGGCAGGCUUCGGUGGCGCGAUAGCGCCAACGUCCUCAACCUCCAAUGCAUCCCACCACAUGAUGAUGCCUGAAGAGCCUUGGUUUUUUG

Variants of: B1
Test: polymerase ribozyme fitness, log enrichment relative to wild type (log ratio); higher = more active; in vitro selection for triplet polymerase activity
Outline: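 Mutant libraries for each subunit of a heterodimeric triplet polymerase ribozyme were made by PCR and then transcribed. Each library underwent one round of in vitro selection in triplicate: annealing with a biotinylated primer, the partner subunit and triplets, frozen incubation at −7 °C, gel excision of extended constructs, streptavidin-bead capture and RT-PCR. Input and output libraries were Illumina-sequenced, and only genotypes with ≥10 input reads and ≥1 read per output were kept. Fitness is the logarithm, base 2, of genotype enrichment over wild-type enrichment, computed from inverse-variance-weighted replicate averages.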

Variant	polymerase ribozyme fitness (log ratio)
GACCAAUCUGCACUCAGAGCUCGAGAACAUCUUCGGAUGCAGAGGAGGCAGGCUUCGGUGGCGCGAUAGCGCCAACGUCCUCAACCUCCAAUGCAUCCCACCACAUGAUGAUGCCAGAAGAGCAUUGGUUUUUUG [C12A U116A C124A]	-0.089
GACCAAUCUGCGCUCAGAGCUCGAGAACAUCUUCGGUUGCAGAGGAGGCAGGCUUCGGUGGCGCGAUAGCGCCAACGUCCUCAACCUCCAAUGCAUCCCACCACCUGAUGACGCCUGAAGAGCCUUGGUUUUUUG [C12G A37U A105C U112C]	-0.116
GACCAAUCUGCACUCAGAGCUCGAGAACAUCUUCGGAUGCAGAGGAGGCAGGCUUCUGUGGCGCGAUAGCGCCAACGUCCUGAACCUCCAAUGCAUCCCACCACAUGAUGAUACCUGAAGAACCUUGGUUUUUUG [C12A G57U C82G G113A G122A]	-2.01
GACCAAUCUGCACUCAGAGCUCGAGAACAUCGUCGGAUGCAGAGGAGGCAGGAUUCGGUGGCGCGAUAGCGCCAACGUCCUCAACCUCUAAUGCAUCCCACCACAUGAUGAUGACUGAAGAGCCUUGGUUUUUUG [C12A U32G C53A C89U C114A]	-8.31
GACCAAUCUGCGCUCAGUGCUCGAGAACAUCUUCGGAUACAGAGGAGGCAGACUUCGGUAGCGCGAUAGCGCCAACGUCCUUAACCUCCAAUGCAUCCCACCACAGGAUGAUGCCUGAAAAGCCUUGGUUUUUUG [C12G A18U G39A G52A G60A C82U U106G G120A]	-3.95
GACCAAUCUGCACUCAGAGCUCGAGAACAUCUUCGGAUGCAGAGGAGGCAGGCUUCGGUGGCGCGAUAGCGCCAACGUCCUCAACCUCCAAUGCAUCCCACCACAUGAUGAUCCCUGAAGAGCCUUGGUUUUUUG [C12A G113C]	-2.64
GACCAAUCUGCACUCAGAGCUCGAGAACAUCUUCGGAUGCAGAGGAGGCAGGCUUCGGUGGCGCGAUAGCGCCAACGUCCUCAACCUCCAAUGCAUCCCACCACAUGAUGAUUCCUGAAGAGCCUUGGUUUUUUG [C12A G113U]	-2.09
GACCAAUCUGCACUCAGAGCUCGAGAACAUCUUCGGAUGCAGAGGAGGCAGGCUUCUGUGUCGCGAUAGCGCCAACGUCCUCAACCUCGAAUGCAUCCCACCACAUGAUGAUGCCUGAAGAGCCUUGGUUUUUUG [C12A G57U G61U C89G]	-5.96
GACCAAUCUGCACUCAGAGCUCGAGAACAUCUUCGGAUGCAGAGGAGGCAGGCUUCGGUGGCGCGAUAGCGCCAACGUCCUCAACCUCCAAUGCAUCCCACCACAUGAUGAUGCCUUAAGAGCCUUGGUUCUUUG [C12A G117U U131C]	-4.17
GACCAAUCUGCGCUCAGAGCUCGAGAGCAUCUUCGGAUGCAGAGGAGGCAGGCUUCGGUGGCGUGAUAGCGCCAACGUCCUCAACCUCCAAUGCAUCCCACCAUAUGAUGAUGCCUGAAGAGCCUUGGUUUUUUG [C12G A27G C64U C104U]	-2.48
GACCAAUCUGCGCUCAGAGCUCGAGAACUUCUUCGGAUGCAGAGGAGGGAGGCUUCGGUGGCGCGAUAGCGCCAACGUCCUUAACCUCCAAUGCAUCCCACCACAUGAUGAUGCUUGAAGAGCCUUGGUUUUAUG [C12G A29U C49G C82U C115U U133A]	-2.06
GACCAAUCUGCACUCAGAGCUCGAGAACAUCUUCGGAUGCAGAGGAGGCAGGCUUCGGUGGCACGAUAGCGCCAACGUCCUCAACCUCGAAUGCAUCCCACCACAUGAUGAUGACUGAAGAGCCUUGGUUUUUUG [C12A G63A C89G C114A]	-6.47
GACCAAUCUGCACUCAGAGCUCGAGAACAUCUUCGGAUGCAGAGGAGGCAGGCUUCGGUGGCGCGAUAGCGCCAACGUCCUCAACCUCCAAUGCAUCCCACCACAUGAUGAUGCCUCAAGGGCCUUGGUUUUUUG [C12A G117C A121G]	-3.52
GACCAAUCUGCACUCAGAGCUCGAGAACAUCUUCGGAUGCAGAGGAGGCAGGCUUCGGUAGCGCGAUAGCGCCAACGUCCUCAACCUCCAAUGCAUCCCACCACAUGAUUAUGCCUGAAGAACCUUGGUUUAUUG [C12A G60A G110U G122A U132A]	-3.16
GACCAAUCUGCACUCAGAGCUCGAGAACAUCUUCGGAUGCAGAGGAGGCAGGCUUCAGUGGCGCGAUAGCGCCAACGUCCUCAACCUCCAAUGCAUCCCACCACAUGAUGAUGCCUGAAGAGCCUUGGUUUUUUG [C12A G57A]	-1.19
GACCAAUCUGCACUCAGAGCUCGAGAACAUCUUCGGAUGCAGAGGAGGCAGGCUUCGGUGACGCGAUAGCGCCAACGUCCUCAACCUCCAAUACAUCCCACCACAUGAUGAUGCCUGAAGAGCCUUGGUUUUUUG [C12A G61A G93A]	-0.608
GACCAAUCUGCGCUCAGAGCUCGUGAACAUCUUCGGAUGCAGAGGAGGCAGGCUUCGGUGGCGCGAUAGCGCCAAAGUCCUAAACCUCCAAUGCAUCCCACCACAUGAUGAUGCCUGAACAGCCUUGGUUUUUUG [C12G A24U C76A C82A G120C]	-6.17
GACCAAUCUGCACUCAGAGCUCGAGAACAUCUUCGGAUGCAGAGGAGGCAGGCUUCGGUGGCGCGAUAGCGCCAACGUCCUCAACCUCCAAUGCAUCCCACCACAUGAUGAUGCCUGAAGAGCCUUGGUCCUUUG [C12A U130C U131C]	-0.148
GACCAAUCUGCACGCAGAGCUCGAGAACAUCUUCGGAUGCAGAGGAGGCAGGCUUCGGUGGCGCGAUAGCGCCAACGUCCUCAACCUCCAAUGCAUCCCACCACAUGAUGAUGCCUGAAGAGCCUUGGUUUUUUG [C12A U14G]	-1.01
GACCAAUCUGCGCUCAGAGCUCGAGAACUUCUUCGGAUGCAGAGGAGGCAGGCUUUGGUGGCGCGAUAGCGCCAACGUCCUCAACCUCCAAUGCAUCCCACCACAUGAUGAUGCCUGCAGAGGCUUGGUUUUUUG [C12G A29U C56U A118C C123G]	-0.961
GACCAAUCUGCGCUCAGAGCUCGAGAACAUCUUCGGAUGCGGAGGAGGCAGGCUUCGGUGGCGCGAUAGCGUCAACGUCCUCAACCUCCAAUGCAUCCCACUACAUGAUGAUGCCUGAAGAGCCUUGGUUUUUUG [C12G A41G C72U C102U]	-2.31
